Test results: PMC3977929, “Affinity- and Specificity-Enhancing Mutations Are Frequent in Multispecific Interactions between TIMP2 and MMPs” (PLoS ONE, 2014)
Where a chain is given by its changes, count along the chain named. In names and notes the source's numbering stands.

B1: N-TIMP2 WT (N-terminal domain of Tissue Inhibitor of Metalloproteinases 2, residues 1-127) (domain or fragment, human, UniProt P16035 27-153, looked up)
chain: CSCSPVHPQQAFCNADVVIRAKAVSEKEVDSGNDIYGNPIKRIQYEIKQIKMFKGPEKDIEFIYTAPSSAVCGVSLDVGGKKEYLIAGKAEGDGKMHITLCDFIVPWDTLSTTQKKSLNHRYQMGCE
notes: Monomeric fraction used; also called WT N-TIMP2
B2: N-TIMP2 V6R (domain or fragment, human, UniProt P16035 27-153, looked up)
chain: B1 chain with V6R
notes: TIMP2, human, N-terminal domain, residues 1-127; also called V06R
B3: N-TIMP2 S4R (domain or fragment, human, UniProt P16035 27-153, looked up)
chain: B1 chain with S4R
notes: TIMP2, human, N-terminal domain, residues 1-127; also called S04R
B4: N-TIMP2 V71N (domain or fragment, human, UniProt P16035 27-153, looked up)
chain: B1 chain with V71N
notes: TIMP2, human, N-terminal domain, residues 1-127
B5: N-TIMP2 T99Y (domain or fragment, human, UniProt P16035 27-153, looked up)
chain: B1 chain with T99Y
notes: as for B4
B6: N-TIMP2 S4Q (domain or fragment, human, UniProt P16035 27-153, looked up)
chain: B1 chain with S4Q
notes: TIMP2, human, N-terminal domain, residues 1-127; also called S04Q
B7: N-TIMP2 H97R (domain or fragment, human, UniProt P16035 27-153, looked up)
chain: B1 chain with H97R
notes: as for B4
B8: N-TIMP2 I35K (domain or fragment, human, UniProt P16035 27-153, looked up)
chain: B1 chain with I35K
notes: as for B4
B9: N-TIMP2 N38Q (domain or fragment, human, UniProt P16035 27-153, looked up)
chain: B1 chain with N38Q
notes: as for B4
B10: N-TIMP2 S4E (domain or fragment, human, UniProt P16035 27-153, looked up)
chain: B1 chain with S4E
notes: TIMP2, human, N-terminal domain, residues 1-127; also called S04E
B11: N-TIMP2 I35E (domain or fragment, human, UniProt P16035 27-153, looked up)
chain: B1 chain with I35E
notes: as for B4
B12: N-TIMP2 S68W (domain or fragment, human, UniProt P16035 27-153, looked up)
chain: B1 chain with S68W
notes: as for B4
B13: N-TIMP2 S4A (domain or fragment, human, UniProt P16035 27-153, looked up)
chain: B1 chain with S4A
notes: as for B4
B14: N-TIMP2 S68Y (domain or fragment, human, UniProt P16035 27-153, looked up)
chain: B1 chain with S68Y
notes: as for B4

Assays:
[1] = target: T1, MMP14 catalytic domain (UniProt P50281 112-285); assay: enzyme activity (inhibition) assay with a fluorogenic substrate; various concentrations of N-TIMP2 pre-incubated 1 hour with MMP9 (0.2 nM) or MMP14 (0.5 nM) in 50 mM Tris-HCl, 0.15 M NaCl, 10 mM CaCl2, 0.02% Brij 35, pH 7.5, 37°C; fraction of enzyme activity fitted to a 1:1 binding model to give Kd; conditions: both partners purified
T1 construct: Matrix Metalloproteinase 14 (MMP14), catalytic domain; source: expressed recombinantly and purified as published before [12]

[2] = target: T2, MMP9 catalytic domain (UniProt P14780 107-444); assay: as above; conditions: both partners purified
T2 construct: Matrix Metalloproteinase 9 (MMP9), catalytic domain; source: expressed recombinantly and purified as published before [12]
T2 sequence (P14780 107-444): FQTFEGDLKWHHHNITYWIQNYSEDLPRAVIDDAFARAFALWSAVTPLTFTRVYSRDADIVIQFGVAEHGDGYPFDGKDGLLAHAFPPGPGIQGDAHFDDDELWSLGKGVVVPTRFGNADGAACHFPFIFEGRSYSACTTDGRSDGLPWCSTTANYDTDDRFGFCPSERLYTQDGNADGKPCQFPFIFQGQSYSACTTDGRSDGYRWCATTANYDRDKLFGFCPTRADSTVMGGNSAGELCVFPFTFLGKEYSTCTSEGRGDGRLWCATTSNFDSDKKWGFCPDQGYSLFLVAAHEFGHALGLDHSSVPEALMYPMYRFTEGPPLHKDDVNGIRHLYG

Binder	Kd [1] [nM]	Kd [2] [nM]
B1	4.5	0.9
B2	1.3	0.5
B3	2.7	0.55
B4	6.5	4.68
B5	1.05	1.1
B6	1.9	1.39
B7	0.32	0.5
B8	0.38	0.58
B9	3.4	2.4
B10	9.5	15.5
B11	5.4	2.5
B12	0.91	0.37
B13	1.4	0.85
B14	1.1	0.8
